Biological target: 人IgM (human, UniProt P01871 1-453)
Assay: AMC sensor kinetics, antibody captured on the sensor, human IgM in graded dilutions in solution

人IgM, sequence (P01871 other isoform, or with tags, fused parts or gaps): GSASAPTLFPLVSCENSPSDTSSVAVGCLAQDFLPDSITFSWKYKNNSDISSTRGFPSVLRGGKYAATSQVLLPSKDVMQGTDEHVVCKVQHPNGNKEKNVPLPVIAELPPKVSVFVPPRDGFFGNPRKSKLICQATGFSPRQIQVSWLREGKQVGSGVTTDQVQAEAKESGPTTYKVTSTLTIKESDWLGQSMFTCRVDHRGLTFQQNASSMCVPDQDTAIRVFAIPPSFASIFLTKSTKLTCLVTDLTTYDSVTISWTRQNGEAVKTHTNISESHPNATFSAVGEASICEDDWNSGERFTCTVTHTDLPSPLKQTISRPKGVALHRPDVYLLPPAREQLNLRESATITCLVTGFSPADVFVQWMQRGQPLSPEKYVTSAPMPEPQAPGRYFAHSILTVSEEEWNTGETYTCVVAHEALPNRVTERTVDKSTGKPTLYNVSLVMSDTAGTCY

Kd [pM]	koff [s⁻¹]	kon [M⁻¹ s⁻¹]	Binder
3.02	2.84e-05	9.41e+06	Ig-M-9G1RMb1抗体 (antibody, mouse IgG1, kappa, V domains shown, It was detected with goat anti-mouse IgG-HRP and captured on AMC sensors; also called 抗人IgM抗体) VH: EVQLQQSGAELVKPGASVKLSCTTSGFSIKDAYIHWVKQRPKQGLEWIGRIDPANGYTKYDPKFQGKATITADKSSSTAYMQLRSLTSEDSAVYYCAREPLPHYYAMDYWGQGTSVTVSS VL: DIQMTQSPSSLSASLGERVSLTCRASQEISGFLSWLQQKPDGTIKRLIYAASTLDSGVPKRFSGSTSGSDYRLKISSLESEDFADYYCIQYTSFPLTFGAGTKLELKR
4.27	6.07e-05	1.42e+07	Ig-M-9G1RMb2抗体 (antibody, V domains shown) VH: EVQLQQSGAELVKPGASVKLSCTTSGFSIKDAYIHWVKQRPKQGLEWIGRIDPANGYTKYDPKFQGKATITADKSSSTAYMQLRSLTSEDSAVYYCAREPLPHYYAMDYWGQGTSVTVSS VL: DIQMTQSPSSLSASLGERVSLTCRASQEISGFLSWLQQKPDGTIKRLIYAASTLDSGVPKRFSGSTSGSDYRLKISSLESEDFADYYCLQYTSFPLTFGAGTKLELKR

Reference: patent CN115677856A (DONGGUAN PENGZHI BIOTECHNOLOGY CO LTD, dated 2023)
